Source: patent US6867180B1, “Use of calreticulin and calreticulin fragments to inhibit endothelial cell growth and angiogenesis, and suppress tumor growth” (The United States of America as represented by the …, priority 1998, dated 2005)

What was measured:
[1] = system: human Burkitt lymphoma cell line CA46; test: Combination of vasostatin and IL-12 on human Burkitt lymphoma in nude mice; assay type: in vivo, BALB/c nude mice; conditions: both experiments; MBP-vasostatin 100 μg/day, mIL-12 100-200 ng/day s.c.
Protocol: Athymic BALB/c nude mice received 400 rad total body irradiation and 24 hours later were inoculated (4×10^6 cell/mouse) with the human Burkitt lymphoma cell line CA46. A and B. 5 days after cell inoculation the established tumors were treated with daily s.c. inoculations (6 days/week) of either formulation buffer alone (closed circles), MBP-vasostatin alone (Seq. I.D. No. 4; 100 μg/day; open squares), mIL-12 alone (200 ng/day for 8 days followed by 100 ng/day; open circles), or the combination of MBP-vasostatin (Seq. I.D. No. 4) and mIL-12 (same dose used as single agents; open triangles). All mice were sacrificed after 15 days of treatment. C and D. 1 day after cell inoculation, s.c. treatment with MBP-vasostatin (Seq. I.D. No. 4; 100 μg/day; 6 days/week) or formulation buffer was started; s.c. treatment with IL-12 (100 ng/mouse; 6 days/week) was started 2 days later in mice that had received buffer alone or MBP-vasostatin (Seq. I.D. No. 4). Therefore, four groups of mice were tested: Mice receiving buffer alone (closed circles); MBP-vasostatin alone (open squares); IL-12 alone (open circles); and MBP-vasostatin plus IL-12 (open triangles). The mice received 7 days treatment with MBP-vasostatin (Seq. I.D. No. 4) and 5 days treatment with IL-12, and were observed untreated for 14 days at which time all mice were sacrificed. […]

[2] = system: peptides KLGFFKR, KAFFKR and KVFFKR coupled to CNBr-activated Sepharose; test: Affinity column binding to integrin / steroid receptor motif peptides; conditions: elution with 20 mM EDTA
From the text: FIG. 18 is a Western blot analysis of fractions obtained through affinity purification over a column containing KXaa1FFXaa2R (Seq. I.D. No. 11) and KXaa1GFFKR (Seq. I.D. No. 10). Purified supernatants from the VDS-0 cell line containing full length calreticulin and N-terminal fragments of calreticulin were affinity purified over a mixture of peptides KLGFFKR (Seq. I.D. No. 13), KAFFKR (Seq. I.D. No. 33) and KVFFKR (Seq. I.D. No. 32) coupled to CNBr-activated Sepharose. Starting material (lane 1), unbound material (lanes 2, 3) and bound material (lanes 4, 5) were separated by SDS-PAGE, transferred to nitrocellulose, and subsequently stained with a rabbit antiserum against human calreticulin.
To this end, purified preparations of the VDS-O cell line containing full length calreticulin (Seq. I.D. No. 3) as well as N-terminal calreticulin fragments were prepared and tested to determine how these components were retained over an affinity column. To prepare the affinity column, three peptides were synthesized ([…], Seq. I.D. 13; KAFFKR, Seq. I.D. No. 33; and KVFFKR, Seq. I.D. No. 32), purified, and coupled to CNBr-activated Sepharose 4B (Pharmacia). First, the ability of calreticulin, purified from the culture supernatant of the lymphoblastoid cell line VDS-O, to selectively bind to the column and be eluted by a buffer solution containing 20 mM EDTA and 100 mM NaCl, was verified. […]

[3] = system: Fetal bovine heart endothelial cells
Protocol: Fetal bovine heart endothelial cells (American Type Culture Collection, ATCC, Manassas, Va.) were grown through passage 12 in DMEM culture medium (BioWhittaker, Walkersville, Md.) containing 10% heat inactivated fetal bovine serum (BioWhittaker), 100 ng/ml bFGF (R&D Systems, Minneapolis, Minn.), and 5 μg/ml gentamicin (Sigma). For proliferation assays, cells were trypsinized (Trypsin/EDTA, Gibco BRL), washed, suspended in culture medium (DMEM containing 10% heat inactivated fetal bovine serum and 5 μg/ml gentamicin), plated (800 cells/well in 0.2 ml culture medium) in triplicate onto 96 well plates, and incubated for 5 days.

[4] = system: human Burkitt lymphoma cells (CA46 cell line); test: Prevention of human Burkitt lymphoma growth in athymic mice; assay type: in vivo, BALB/c athymic mice; conditions: 4×10^6 CA46 cells; 75 μg/day, 6 days/week, 42 days
From the text: FIGS. 6A, 6B, 6C and 6D are graphs showing the inhibition of tumor growth by vasostatin (Seq. I.D. No. 4) and calreticulin (Seq. I.D. No. 3). Burkitt lymphoma cells (CA46 cell line, 1×10^7 cells) were inoculated subcutaneously (s.c.) into BALB/c athymic mice, 6 weeks of age. Beginning on the day of cell inoculation and continuing thereafter daily, 6 days/week, mice were inoculated s.c. with either control buffer (open symbols) or test protein (closed symbols). The results reflect the % mice with tumor as a function of time. A. 12 mice were inoculated with control purified GST protein (Seq. I.D. No. 2; 20 μg/day×14 days), and 13 mice were inoculated with purified GST-calreticulin ([…]; 60 μg/day×14 days). […]
BALB/c nu/nu female mice, 6 weeks of age (National Cancer Institute, Frederick, Md.) maintained in pathogen-limited conditions, received 400 rad (1 rad=0.01 Gy) total body irradiation and 24 hours later were injected s.c. in the right abdominal quadrant with 10^7 exponentially growing human Burkitt lymphoma cells (CA46 cell line; Sgadari et al., Proc. Natl. Acad. Sci. U.S.A. 93:13791-13796, 1996) in 0.2 ml PBS. […] A subcutaneous mass appearing at or proximal to the site of cell inoculation was considered a tumor when it measured at least 0.16 cm^2 in surface area and increased in size by at least 0.1 cm^2 over the following week. […]

[5] = system: bFGF-induced neovascularization; test: Murine Matrigel assay of angiogenesis in vivo; parameters: species or system BALB/c nude mice; conditions: Exp. 4; concentration not given; bFGF 150 ng/ml
Protocol: The murine Matrigel assay (Passaniti et al., Lab. Invest. 67:519-528, 1992) was employed to evaluate the effects of calreticulin and calreticulin fragments on angiogenesis in vivo. The Matrigel assay was performed as described by Angiolillo et al. (J. Exp. Med. 182:155-162, 1995). Matrigel, a crude extract of the Englebreth-Holm-Swarm tumor, was obtained from Collaborative Biomedical Products, Becton Dickinson Labware, Bedford, Mass. An aliquot (0.5 ml) of Matrigel alone or with desired additives was injected subcutaneously (s.c.) into the mid abdominal region of female BALB/c nude mice, 6-8 weeks old. Five mice were injected with each mixture. After 5-7 days, the animals were sacrificed, Matrigel plugs were removed, fixed in 10% neutral buffered formalin solution (Sigma), and embedded in paraffin. Tissues were sectioned (5μ thickness), and slides stained with Masson's trichrome. Quantitative analysis of angiogenesis in Matrigel plugs utilized a computerized semi-automated digital analyzer (Optomax, 40-10 System, Hollis, N.H.). The instrument was adjusted to evaluate a circular area measuring […] of Matrigel, and within this area, to measure the area occupied by cells. For each plug, 12-15 distinct fields were evaluated. The fields were randomly selected from each plug, and the operator was blind to the experimental design. The average area occupied by cells/1.26×10^5 […] Matrigel field was calculated. Results are expressed as the mean area occupied by cells/Matrigel field.
Matrigel plugs were fixed in 10% neutral buffered formalin solution (Sigma), embedded in paraffin, sectioned at 4 μm, and stained with Masson's trichrome by standard methods.

[6] = Table 1 exp. 3, estimated concentration 0.160 μg/ml, bFGF 25 ng/ml, 5 days

Molecule	rate of tumor growth and mean weight of tumors compared with formulation buffer [1]	binding to peptide affinity column [2]	Inhibition (%) [3, 6] [%]	Proliferation (mean cpm/culture) [3, 6]	rate of Burkitt tumor growth compared to controls [4]	inhibition of fetal bovine heart endothelial cell proliferation ([3]; 0.5 μg/ml, bFGF-induced) [%]	endothelial cell growth inhibitory activity in vitro, side-by-side comparison on a molar basis ([3]; 0.4-32 nM, bFGF 15 ng/ml, 5 days)	Inhibition (%) [5] [%]	Mean Surface Area Occupied by Cells [5]
mIL-12: murine IL-12 (Interleukin 12) (protein, UniProt P43431 23-215; P43432 23-335, looked up) Interleukin-12 subunit alpha: RVIPVSGPARCLSQSRNLLKTTDDMVKTAREKLKHYSCTAEDIDHEDITRDQTSTLKTCLPLELHKNESCLATRETSSTTRGSCLPPQKTSLMMTLCLGSIYEDLKMYQTEFQAINAALQNHNHQQIILDKGMLVAIDELMQSLNHNGETLRQKPPVGEADPYRVKMKLCILLHAFSTRVVTINRVMGYLSSA Interleukin-12 subunit beta: MWELEKDVYVVEVDWTPDAPGETVNLTCDTPEEDDITWTSDQRHGVIGSGKTLTITVKEFLDAGQYTCHKGGETLSHSHLLLHKKENGIWSTEILKNFKNKTFLKCEAPNYSGRFTCSWLVQRNMDLKFNIKSSSSSPDSRAVTCGMASLSAEKVTLDQRDYEKYSVSCQEDVTCPTAEETLPIELALEARQQNKYENYSTSFFIRDIIKPDPPKNLQMKPLKNSQVEVSWEYPDSWSTPHSYFSLKFFVRIQRKKEKMKETEEGCNQKGAFLVEKTSTEVQCKGGNVCVQAQDRYYNSSCSKWACVPCRVRS	reduced								
Gel-eluted calreticulin: natural calreticulin from purified VDS-O B cell line supernatant, 55 kDa band eluted from gel (protein) EPAVYFKEQFLDGDGWTSRWIESKHKSDFGKFVLSSGKFYGDEEKDKGLQTSQDARFYALSASFEPFSNKGQTLVVQFTVKHEQNIDCGGGYVKLFPNSLDQTDMHGDSEYNIMFGPDICGPGTKKVHVIFNYKGKNVLINKDIRCKDDEFTHLYTLIVRPDNTYEVKIDNSQVESGSLEDDWDFLPPKKIKDPDASKPEDWDERAKIDDPTDSKPEDWDKPEHIPDPDAKKPEDWDEEMDGEWEPPVIQNPEYKGEWKPRQIDNPDYKGTWIHPEIDNPEYSPDPSIYAYDNFGVLGLDLWQVKSGTIFDNFLITNDEAYAEEFGNETWGVTKAAEKQMKDKQDEEQRLKEEEEDKKRKEEEEAEDKEDDEDKDEDEEDEEDKEEDEEEDVPGQAKDEL		retained by the column	81	11,226 cpm/culture					
MBP-120-180 calreticulin: recombinant 61 amino acid calreticulin fragment, amino acids 120-180 (Seq. I.D. No. 5), fused to MBP (protein, left off: large carriers) CGPGTKKVHVIFNYKGKNVLINKDIRCKDDEFTHLYTLIVRPDNTYEVKIDNSQVESGSLE		failed to bind			significantly reduced	65	similar	70	2,458 mm^2/1.26 × 10^5 mm^2
